How the values were obtained:
[1] = molecular target: Dityrosine cross-linked Aβ42 dimer [Aβ(M1-42)]DiY; experiment: centrifugation with thioflavin T read-out
[2] = molecular target: Dityrosine cross-linked Aβ42 dimer [Aβ(M1-42)]DiY; experiment: SEC

- ThT signal of the end-stage sample removed by centrifugation [1]: 80%
- decrease of the dimer peak at t = max [2]: 40%
Substance: Dityrosine cross-linked Aβ42 dimer [Aβ(M1-42)]DiY (peptide)

— paper PMC5461814
